Test results reported in publication PMC5811355.

Molecular target: FhuA 13R1 (Escherichia coli) (UniProt P06971)
Assay: continuous wave EPR of spin-labelled protein

UniProt P06971, sequence (P06971 34-747): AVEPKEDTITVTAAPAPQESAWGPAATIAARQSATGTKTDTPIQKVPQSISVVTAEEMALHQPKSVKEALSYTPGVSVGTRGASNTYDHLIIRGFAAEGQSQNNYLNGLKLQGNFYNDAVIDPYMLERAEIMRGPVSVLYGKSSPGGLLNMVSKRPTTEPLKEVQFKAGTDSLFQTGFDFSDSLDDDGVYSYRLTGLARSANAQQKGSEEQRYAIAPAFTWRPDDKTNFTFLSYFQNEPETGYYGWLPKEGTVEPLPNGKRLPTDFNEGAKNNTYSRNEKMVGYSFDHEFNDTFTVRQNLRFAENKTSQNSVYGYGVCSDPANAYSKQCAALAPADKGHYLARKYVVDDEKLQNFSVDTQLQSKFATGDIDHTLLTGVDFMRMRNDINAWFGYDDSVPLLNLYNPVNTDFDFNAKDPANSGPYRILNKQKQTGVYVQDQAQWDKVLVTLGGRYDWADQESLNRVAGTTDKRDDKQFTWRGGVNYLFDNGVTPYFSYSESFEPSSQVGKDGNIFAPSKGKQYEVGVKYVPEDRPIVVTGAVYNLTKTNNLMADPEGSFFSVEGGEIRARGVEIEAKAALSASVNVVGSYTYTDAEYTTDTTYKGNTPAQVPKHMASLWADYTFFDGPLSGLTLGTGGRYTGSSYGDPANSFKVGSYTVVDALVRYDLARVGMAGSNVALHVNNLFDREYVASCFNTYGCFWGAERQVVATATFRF

fraction of FhuA bound to TonB: 95%
Substance: TonB (103-239) (from UniProt P02929 103-239) (domain or fragment)
